Laboratory results as given in article PMC3202633.

Molecular target: GFP-β1-integrin (UniProt P05556)
Assay: co-IP; GFP-Trap capture of GFP-β1-integrin (or GFP alone) from MEFs spread on 50K-coated dishes, unstimulated or stimulated with H/0 for 10 min, cross-linked with DTBP; western blotting

Chain of UniProt P05556 (P05556 21-798): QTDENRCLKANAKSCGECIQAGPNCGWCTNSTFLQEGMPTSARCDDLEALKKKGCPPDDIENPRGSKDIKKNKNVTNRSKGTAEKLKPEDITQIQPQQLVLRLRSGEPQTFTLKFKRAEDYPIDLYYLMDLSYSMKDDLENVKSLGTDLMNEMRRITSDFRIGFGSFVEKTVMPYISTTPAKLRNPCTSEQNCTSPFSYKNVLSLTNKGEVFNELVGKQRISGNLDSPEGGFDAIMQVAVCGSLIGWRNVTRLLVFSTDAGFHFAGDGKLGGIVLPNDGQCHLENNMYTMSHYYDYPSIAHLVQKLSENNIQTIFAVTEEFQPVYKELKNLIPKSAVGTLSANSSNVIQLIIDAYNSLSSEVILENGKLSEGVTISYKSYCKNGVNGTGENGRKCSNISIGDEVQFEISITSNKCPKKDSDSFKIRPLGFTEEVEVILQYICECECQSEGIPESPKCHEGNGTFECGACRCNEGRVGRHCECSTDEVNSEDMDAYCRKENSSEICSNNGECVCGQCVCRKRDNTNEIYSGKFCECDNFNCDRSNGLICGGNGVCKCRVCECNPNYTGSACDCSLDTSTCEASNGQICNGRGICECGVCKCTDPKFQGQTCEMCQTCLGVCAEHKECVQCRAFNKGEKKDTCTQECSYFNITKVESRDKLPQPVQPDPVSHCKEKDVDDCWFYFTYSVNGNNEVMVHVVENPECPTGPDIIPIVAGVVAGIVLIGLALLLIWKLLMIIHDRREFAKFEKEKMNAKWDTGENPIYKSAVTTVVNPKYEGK
Chain of RhoGDI (Q99PT1 whole entry): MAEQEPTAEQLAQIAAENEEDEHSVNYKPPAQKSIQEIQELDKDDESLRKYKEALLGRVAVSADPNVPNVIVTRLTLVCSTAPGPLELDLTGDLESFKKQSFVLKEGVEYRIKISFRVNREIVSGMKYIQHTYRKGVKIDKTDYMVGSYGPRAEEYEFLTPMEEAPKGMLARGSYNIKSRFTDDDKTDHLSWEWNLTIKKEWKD

RhoGDI (from UniProt Q99PT1 1-204) (natural protein)
reduction in bound RhoGDI after 10 min H/0 stimulation, against unstimulated cells: 46%
